Assay results published in the supplement of paper PMC7877785.
± gives the uncertainty stated by the source.

Assay: self-splicing fitness, log relative to wild type (ln ratio); higher = more splicing; Tetrahymena group I intron in knt gene, E. coli kanamycin selection, DiMSum; sequences stand for … in CUCUCU…GGAGGGAAAAGUUAUCAGGCAUGCACCUGGUAGCUAGUCUUUAAACCAAUAGAUUGCAUCGGUUUAAAAGGCAAGACCGUCAAAUUGCGGGAAAGGGGUCAACAGCCGUUCAGUACCAAGUCUCAGGGGAAACUUUGAGAUGGCCUUGCAAAGGGUAUGGUAAUAAGCUGACGGACAUGGUCCUAACCACGCAGCCAAGUCCUAAGUCAACAGAUCUUCUGUUGAUAUGGAUGCAGUUCACAGACUAAAUGUCGGUCGGGGAAGAUGUAUUCUUCUCAUAAGAUAUAGUCGGACCUCUCCUUAAUGGGAGCUAGCGGAUGAAGUGAUGCAACACUGGAGCCGCUGGGAACUAAUUUGUAUGCGAAAGUAUAUUGAUUAGUUUUGGAGUACUCGUGGUCG
Summary of the method: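 Library with all eight P1ex-region intron nucleotides randomised, intron inside the knt kanamycin-resistance gene on pET-22b(+), in E. coli BL21(DE3). Cells grew overnight at 37°C or 30°C on LB agar with or without 25 μg/mL kanamycin (plus 100 μg/mL carbenicillin, 50 μM IPTG, 0.2% rhamnose), in six replicate transformations. Pooled colonies were amplicon-sequenced on Illumina HiSeq 2500. DiMSum fitness is the error-weighted combination of wild-type-normalised replicate fold changes, kanamycin versus none.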

With CCUCAGCAAUAUUACGUCUG the “self-splicing fitness (ln)” value (30 °C) was -3.75 ± 0.23 and the “self-splicing fitness (ln)” value (37 °C) was -1.79 ± 0.19.

In the case of CCUCAGCAAUAUUACGUGAC, the “self-splicing fitness (ln)” value (30 °C) is reported as -3.76 ± 0.22 and the “self-splicing fitness (ln)” value (37 °C) is reported as -2.66 ± 0.24.

In the case of CCUCAGCAAUAUUACGUGAU, the “self-splicing fitness (ln)” value (30 °C) is reported as -2.84 ± 0.2 and the “self-splicing fitness (ln)” value (37 °C) is reported as -2.71 ± 0.43.

In the case of CCUGAGCAAUAUUACGAAGC, the “self-splicing fitness (ln)” value (30 °C) is reported as -2.38 ± 0.14 and the “self-splicing fitness (ln)” value (37 °C) is reported as -2.58 ± 0.3.

With CCUGAGCAAUAUUACGACAU the “self-splicing fitness (ln)” value (30 °C) was -3.785 ± 0.027 and the “self-splicing fitness (ln)” value (37 °C) was -2.87 ± 0.042.

In the case of CCUGAGCAAUAUUACGACCA, the “self-splicing fitness (ln)” value (30 °C) is reported as -2.89 ± 0.44 and the “self-splicing fitness (ln)” value (37 °C) is reported as -2.06 ± 0.38.

For CCUGAGCAAUAUUACGAGGC, the “self-splicing fitness (ln)” value (30 °C) was -3.18 ± 0.43 and the “self-splicing fitness (ln)” value (37 °C) was -1.54 ± 0.26.

In the case of CCUGAGCAAUAUUACGAUAG, the “self-splicing fitness (ln)” value (30 °C) is reported as -1.55 ± 0.085 and the “self-splicing fitness (ln)” value (37 °C) is reported as -0.775 ± 0.089.

For CCUGAGCAAUAUUACGAUCC, the “self-splicing fitness (ln)” value (30 °C) was -4.29 ± 0.47 and the “self-splicing fitness (ln)” value (37 °C) was -2.96 ± 0.48.

With CCUGAGCAAUAUUACGAUCG the “self-splicing fitness (ln)” value (30 °C) was -3.71 ± 0.27 and the “self-splicing fitness (ln)” value (37 °C) was -3.46 ± 0.3.

With CCUGAGCAAUAUUACGCAAC the “self-splicing fitness (ln)” value (30 °C) was -2.76 ± 0.33 and the “self-splicing fitness (ln)” value (37 °C) was -1.78 ± 0.27.

With CCUGAGCAAUAUUACGCAAU the “self-splicing fitness (ln)” value (30 °C) was -3.31 ± 0.19 and the “self-splicing fitness (ln)” value (37 °C) was -2.68 ± 0.24.

With CCUGAGCAAUAUUACGCACG the “self-splicing fitness (ln)” value (30 °C) was -3.16 ± 0.47 and the “self-splicing fitness (ln)” value (37 °C) was -2.09 ± 0.37.

For CCUGAGCAAUAUUACGCACU, the “self-splicing fitness (ln)” value (30 °C) was -4.16 ± 0.3 and the “self-splicing fitness (ln)” value (37 °C) was -2.8 ± 0.24.

With CCUGAGCAAUAUUACGCAGU the “self-splicing fitness (ln)” value (30 °C) was -2.91 ± 0.2 and the “self-splicing fitness (ln)” value (37 °C) was -2.84 ± 0.28.

For CCUGAGCAAUAUUACGCCGU, the “self-splicing fitness (ln)” value (30 °C) was -3.18 ± 0.45 and the “self-splicing fitness (ln)” value (37 °C) was -1.61 ± 0.39.

In the case of CCUGAGCAAUAUUACGCGUA, the “self-splicing fitness (ln)” value (30 °C) is reported as -3.77 ± 0.34 and the “self-splicing fitness (ln)” value (37 °C) is reported as -2.33 ± 0.23.

For CCUGAGCAAUAUUACGCGUC, the “self-splicing fitness (ln)” value (30 °C) was -2.89 ± 0.27 and the “self-splicing fitness (ln)” value (37 °C) was -3.02 ± 0.4.

For CCUGAGCAAUAUUACGCUCC, the “self-splicing fitness (ln)” value (37 °C) was -3.8 ± 0.33.

In the case of CCUGAGCAAUAUUACGCUUA, the “self-splicing fitness (ln)” value (30 °C) is reported as -2.31 ± 0.24 and the “self-splicing fitness (ln)” value (37 °C) is reported as -2.27 ± 0.39.

In the case of CCUGAGCAAUAUUACGGAGG, the “self-splicing fitness (ln)” value (30 °C) is reported as -3.56 ± 0.24 and the “self-splicing fitness (ln)” value (37 °C) is reported as -2.54 ± 0.26.

With CCUGAGCAAUAUUACGGAUG the “self-splicing fitness (ln)” value (30 °C) was -1.52 ± 0.057 and the “self-splicing fitness (ln)” value (37 °C) was -1.31 ± 0.078.

With CCUGAGCAAUAUUACGGGUU the “self-splicing fitness (ln)” value (30 °C) was -4.27 ± 0.34 and the “self-splicing fitness (ln)” value (37 °C) was -2.56 ± 0.31.

With CCUGAGCAAUAUUACGGUCA the “self-splicing fitness (ln)” value (30 °C) was -2.92 ± 0.24 and the “self-splicing fitness (ln)” value (37 °C) was -2.46 ± 0.33.

In the case of CCUGAGCAAUAUUACGUAAU, the “self-splicing fitness (ln)” value (30 °C) is reported as -2.24 ± 0.2 and the “self-splicing fitness (ln)” value (37 °C) is reported as -2.6 ± 0.25.

With CCUGAGCAAUAUUACGUAUA the “self-splicing fitness (ln)” value (30 °C) was -3.53 ± 0.23 and the “self-splicing fitness (ln)” value (37 °C) was -2.51 ± 0.24.

For CCUGAGCAAUAUUACGUGGC, the “self-splicing fitness (ln)” value (30 °C) was -3.15 ± 0.24.

In the case of CCUGAGCAAUAUUACGUUUA, the “self-splicing fitness (ln)” value (30 °C) is reported as -3.15 ± 0.15 and the “self-splicing fitness (ln)” value (37 °C) is reported as -1.57 ± 0.17.

For CCUUAGCAAUAUUACGAGGU, the “self-splicing fitness (ln)” value (30 °C) was -4.03 ± 0.15 and the “self-splicing fitness (ln)” value (37 °C) was -2.52 ± 0.15.

For CCUUAGCAAUAUUACGAGUG, the “self-splicing fitness (ln)” value (30 °C) was -1.07 ± 0.082 and the “self-splicing fitness (ln)” value (37 °C) was 0.122 ± 0.11.

With CCUUAGCAAUAUUACGAUAG the “self-splicing fitness (ln)” value (30 °C) was -2.77 ± 0.12 and the “self-splicing fitness (ln)” value (37 °C) was -2.37 ± 0.18.

With CCUUAGCAAUAUUACGAUCA the “self-splicing fitness (ln)” value (37 °C) was -2.51 ± 0.38.

With CCUUAGCAAUAUUACGCCAA the “self-splicing fitness (ln)” value (30 °C) was -2.7 ± 0.34 and the “self-splicing fitness (ln)” value (37 °C) was -0.755 ± 0.31.

With CCUUAGCAAUAUUACGCCUA the “self-splicing fitness (ln)” value (30 °C) was -2.69 ± 0.48 and the “self-splicing fitness (ln)” value (37 °C) was -1.4 ± 0.35.

With CCUUAGCAAUAUUACGGCAC the “self-splicing fitness (ln)” value (30 °C) was -3.69 ± 0.29 and the “self-splicing fitness (ln)” value (37 °C) was -2.71 ± 0.44.

In the case of CCUUAGCAAUAUUACGGCCU, the “self-splicing fitness (ln)” value (37 °C) is reported as -0.938 ± 0.34.

In the case of CCUUAGCAAUAUUACGGCUA, the “self-splicing fitness (ln)” value (30 °C) is reported as -2.52 ± 0.45 and the “self-splicing fitness (ln)” value (37 °C) is reported as -1.75 ± 0.37.

For CCUUAGCAAUAUUACGGGCU, the “self-splicing fitness (ln)” value (30 °C) was -4.07 ± 0.28 and the “self-splicing fitness (ln)” value (37 °C) was -2.87 ± 0.22.

With CCUUAGCAAUAUUACGGGGU the “self-splicing fitness (ln)” value (30 °C) was -4.43 ± 0.28 and the “self-splicing fitness (ln)” value (37 °C) was -2.08 ± 0.19.

With CCUUAGCAAUAUUACGUAAC the “self-splicing fitness (ln)” value (30 °C) was -4.41 ± 0.22 and the “self-splicing fitness (ln)” value (37 °C) was -2.41 ± 0.18.

For CCUUAGCAAUAUUACGUAUC, the “self-splicing fitness (ln)” value (30 °C) was -4.15 ± 0.27 and the “self-splicing fitness (ln)” value (37 °C) was -2.17 ± 0.26.

For CCUUAGCAAUAUUACGUGUG, the “self-splicing fitness (ln)” value (30 °C) was -1.61 ± 0.063 and the “self-splicing fitness (ln)” value (37 °C) was -0.595 ± 0.078.

For CGAAAGCAAUAUUACGACUA, the “self-splicing fitness (ln)” value (30 °C) was -1.51 ± 0.14 and the “self-splicing fitness (ln)” value (37 °C) was -0.539 ± 0.13.
